# B1: RBBP5 (parent)
# chain: TGTSNTTAIKSIEFARKGSCFLIN
# Variants of: B1
# Assay: protein stability index of a GFP-peptide fusion (GPS, HEK-293T) (PSI 1-6); higher = more stable
# Details: c terminus: a fixed tail appended
# 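Note: lentivirally expressed fusions sorted by FACS into six bins by GFP to DsRed ratio, PSI derived from sequencing read proportions per bin multiplied by bin number.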
row,Variant,protein stability index
1,TGTSNTTAIKSIEFARAGSCFLIN,2.24
2,TGTSNTTAIKSIEFARWGSCFLIN,2.11
3,TGTSNTTAIKSIEFARQGSCFLIN,2.5
4,TGTSNTTAIKSIEFARFGSCFLIN,2.17
5,TGTSNTTAIKSIEFARNGSCFLIN,2.63
6,TGTSNTTAIKSIEFFRKGSCFLIN,2.52
7,TGTSNTTAIKSIEFIRKGSCFLIN,1.63
8,TGTSNTTAIKSIEFPRKGSCFLIN,2.46
9,TGTSNTTAIKSIEFDRKGSCFLIN,2.9
10,TGTSNTTAIKSIEFWRKGSCFLIN,2.23
11,TGTSNTTAIPSIEFARKGSCFLIN,2.38
12,TGTSNTTAIDSIEFARKGSCFLIN,2.08
13,TGTSNTTAIESIEFARKGSCFLIN,2.62
14,TGTSNTTAIVSIEFARKGSCFLIN,1.93
15,TGTDNTTAIKSIEFARKGSCFLIN,2.35
16,TGTKNTTAIKSIEFARKGSCFLIN,2.67
17,TGTNNTTAIKSIEFARKGSCFLIN,2.36
18,TGTFNTTAIKSIEFARKGSCFLIN,1.97
19,TGTGNTTAIKSIEFARKGSCFLIN,2.17
20,TGTCNTTAIKSIEFARKGSCFLIN,2.2
21,TGTSNTTMIKSIEFARKGSCFLIN,2.21
22,TGTSNTTEIKSIEFARKGSCFLIN,2.71
23,TGTSNTTHIKSIEFARKGSCFLIN,1.85
24,TGTSNTTYIKSIEFARKGSCFLIN,2.22

row,Variant,protein stability index
1,TGTSNITAIKSIEFARKGSCFLIN,1.63
2,TGTSNSTAIKSIEFARKGSCFLIN,2.64
3,TGTSNKTAIKSIEFARKGSCFLIN,2.15
4,TGTSNQTAIKSIEFARKGSCFLIN,2.12
5,TGTSNMTAIKSIEFARKGSCFLIN,2.04
6,TGTSNTTAIKSIEFARKGSIFLIN,2.23
7,TGTSNTTAIKSIEFARKGSLFLIN,2.25
8,TGTSNTTAIKSIEFARKGSQFLIN,2.51
9,TGTSNTTAIKSIEFARKGSEFLIN,2.98
10,TGTSNTTAIKSIEFARKGSHFLIN,2.16
11,TGTSNTTAIKSIAFARKGSCFLIN,1.92
12,TGTSNTTAIKSIGFARKGSCFLIN,2.11
13,TGTSNTTAIKSIYFARKGSCFLIN,2.6
14,TGTSNTFAIKSIEFARKGSCFLIN,1.93
15,TGTSNTIAIKSIEFARKGSCFLIN,2.23
16,TGTSNTHAIKSIEFARKGSCFLIN,1.97
17,TGTSNTSAIKSIEFARKGSCFLIN,2.4
18,TGTSNTDAIKSIEFARKGSCFLIN,2.3
19,TGTSNTYAIKSIEFARKGSCFLIN,1.89
20,TGTSNTTAIKSIEFARKGMCFLIN,1.59
21,TGTSNTTAIKSIEFARKGDCFLIN,3.72
22,TGTSNTTAIKSIEFARKGECFLIN,2.33
23,TGTSNTTAIKSIEFARKGCCFLIN,2.67
24,TGKSNTTAIKSIEFARKGSCFLIN,2.9

row,Variant,protein stability index
1,TITSNTTAIKSIEFARKGSCFLIN,1.89
2,TKTSNTTAIKSIEFARKGSCFLIN,2.31
3,TFTSNTTAIKSIEFARKGSCFLIN,1.76
4,TGTSNTTAIKSIEFAGKGSCFLIN,2.42
5,TGTSNTTAIKSIEFATKGSCFLIN,2.26
6,TGTSNTTAIKSIEFASKGSCFLIN,2.44
7,TGTSNTTAIKSIEFAQKGSCFLIN,2.73
8,TGTSNTTAIKSIEFAVKGSCFLIN,1.99
9,TGTSNTTAIKSIEFAMKGSCFLIN,1.75
10,TGTSNTTAIKSIETARKGSCFLIN,2.97
11,TGTSNTTAIKSIEVARKGSCFLIN,2.86
12,TGTSNTTAIKSIEMARKGSCFLIN,2.69
13,TGTSNTTAIKSIEIARKGSCFLIN,2.64
14,TGTSNTTAIKSHEFARKGSCFLIN,2.94
15,TGTSNTTAIKSCEFARKGSCFLIN,2.67
16,TGTSNTTAIKSWEFARKGSCFLIN,2.4
17,TGTSNTTAIKSYEFARKGSCFLIN,2.12
18,TGTSNTTAIKSKEFARKGSCFLIN,2.23
19,TGTSNTTAIKSEEFARKGSCFLIN,3.5
20,CGTSNTTAIKSIEFARKGSCFLIN,1.53
21,DGTSNTTAIKSIEFARKGSCFLIN,3.69
22,GGTSNTTAIKSIEFARKGSCFLIN,2.19
23,NGTSNTTAIKSIEFARKGSCFLIN,2.3
24,WGTSNTTAIKSIEFARKGSCFLIN,1.69

row,Variant,protein stability index
1,TGTSATTAIKSIEFARKGSCFLIN,2.1
2,TGTSCTTAIKSIEFARKGSCFLIN,1.93
3,TGTSNTTAIKSIEFARKYSCFLIN,2.07
4,TGTSNTTAIKSIEFARKGSCFFIN,1.99
5,TGTSNTTAIKSIEFARKGSCFVIN,2.28
6,TGTSNTTAIKSIEFARKGSCFRIN,2.81
7,TGTSNTTAIKSIEFARKGSCFQIN,3.48
8,TGTSNTTAIKSIEFARKGSCFMIN,2.64
9,TGTSNTTAVKSIEFARKGSCFLIN,2.76
10,TGTSNTTAPKSIEFARKGSCFLIN,2.61
11,TGTSNTTAIKSIEFARKGSCFLAN,2.67
12,TGTSNTTAIKSIEFARKGSCFLTN,3.5
13,TGTSNTTAIKSIEFARKGSCFLKN,3.62
14,TGTSNTTAIKSIEFARKGSCFLPN,2.82
15,TGTSNTTAIKSIEFARKGSCYLIN,2.56
16,TGTSNTTAIKSIEFARKGSCELIN,3.73
17,TGTSNTTAIKSIEFARKGSCILIN,2.37
18,TGTSNTTAIKSIEFARKGSCGLIN,3.35
19,TGTSNTTAIKSIEFARKGSCALIN,3.36
20,TGTSNTTAIKSIEFARKGSCLLIN,2.07
21,TGTSNTTAIKSIEFARKGSCQLIN,3.17
22,TGTSNTTAIKSIEFARKGSCVLIN,2.75

# From the supplement of paper PMC10567573
